Data as given in US20150037349A1 (TECHNOPHAGE INVESTIGA O E DESENVOLVIMENTO EM BIOTECNOLOGIA, published 2015).

B1: rat TNF-alpha (ligand)
chain: LRSSSQNSSDKPVAHVVANHQAEEQLEWLSQRANALLANGMDLKDNQLVVPADGLYLIYSQVLFKGQGCPDYVLLTHTVSRFAISYQEKVSLLSAIKSPCPKDTPEGAELKPWYEPMYLGGVFQLEKGDLLSAEVNLPKYLDITESGQVYFGVIAL
B2: rat albumin (other)
chain: EAHKSEIAHRFKDLGEQHFKGLVLIAFSQYLQKCPYEEHIKLVQEVTDFAKTCVADENAENCDKSIHTLFGDKLCAIPKLRDNYGELADCCAKQEPERNECFLQHKDDNPNLPPFQRPEAEAMCTSFQENPTSFLGHYLHEVARRHPYFYAPELLYYAEKYNEVLTQCCTESDKAACLTPKLDAVKEKALVAAVRQRMKCSSMQRFGERAFKAWAVARMSQRFPNAEFAEITKLATDVTKINKECCHGDLLECADDRAELAKYMCENQATISSKLQACCDKPVLQKSQCLAEIEHDNIPADLPSIAADFVEDKEVCKNYAEAKDVFLGTFLYEYSRRHPDYSVSLLLRLAKKYEATLEKCCAEGDPPACYGTVLAEFQPLVEEPKNLVKTNCELYEKLGEYGFQNAVLVRYTQKAPQVSTPTLVEAARNLGRVGTKCCTLPEAQRLPCVEDYLSAILNRLCVLHEKTPVSEKVTKCCSGSLVERRPCFSALTVDETYVPKEFKAETFTFHSDICTLPDKEKQIKKQTALAELVKHKPKATEDQLKTVMGDFAQFVDKCCKAADKDNCFATEGPNLVARSKEALA
notes: also called rat serum albumin; albumin from rat sera

Experiments:
human TNF-alpha [1] = target: T1, human TNF-alpha (human, UniProt P01375 77-233); test: ELISA, human TNF-alpha coated (80 ng/well), anti-HA-HRP, OD 405 nm, one unstated fragment concentration
T1 construct: Immobilised on a CM5 chip or coated on ELISA plates
Method: (§1) Relative binding activities of VL monomers and constructed dimers were measured for human and rat TNF-alpha, while BSA was used as a negative control. Briefly, a 384-well ELISA plate was coated with 80 ng of human or rat TNF-alpha and incubated overnight at 4° C. Wells were blocked for one hour at 37° C. with 3% BSA in PBS. Antibody fragments were added to the wells and incubated for 1 h at room temperature. After washing the wells with PBS, anti-HA-HRP mAb (Roche) was used for detection.

rat TNF-alpha [2] = target: B1; test: ELISA, rat TNF-alpha coated (80 ng/well), anti-HA-HRP, OD 405 nm, one unstated fragment concentration
Method: as §1

BSA = target: T2, BSA (bovine, UniProt P02769); test: ELISA, BSA as negative-control antigen, anti-HA-HRP, OD 405 nm
T2 construct: coated as negative-control antigen; Negative control antigen of the ELISAs; also called bovine serum albumin
Method: as §1

human TNF-alpha [3] = target: T1, human TNF-alpha; test: Biacore (SPR)
rat TNF-alpha [4] = target: B1; test: antigen cross-reactivity, as described in the Examples above
VL18-3L-VL11 PEP DI #7 [5] = target: T3, VL18-3L-VL11 PEP DI #7; test: as above
T3 construct: also called Variant #7

human albumin = target: T4, human albumin (human, UniProt P02768 25-609); test: Biacore (SPR)
T4 construct: also called human serum albumin; albumin from human sera

rat albumin = target: B2; test: Biacore (SPR)
mouse albumin = target: T5, mouse albumin (mouse, UniProt P07724 25-608); test: antigen cross-reactivity, as described in the Examples above
T5 construct: also called mouse serum albumin; albumin from mouse sera

VL18-3L-VL11 PEP DI #7 [6] = target: T3, VL18-3L-VL11 PEP DI #7; test: Biacore (SPR)

T2 sequence (P02769 25-607 limits assumed): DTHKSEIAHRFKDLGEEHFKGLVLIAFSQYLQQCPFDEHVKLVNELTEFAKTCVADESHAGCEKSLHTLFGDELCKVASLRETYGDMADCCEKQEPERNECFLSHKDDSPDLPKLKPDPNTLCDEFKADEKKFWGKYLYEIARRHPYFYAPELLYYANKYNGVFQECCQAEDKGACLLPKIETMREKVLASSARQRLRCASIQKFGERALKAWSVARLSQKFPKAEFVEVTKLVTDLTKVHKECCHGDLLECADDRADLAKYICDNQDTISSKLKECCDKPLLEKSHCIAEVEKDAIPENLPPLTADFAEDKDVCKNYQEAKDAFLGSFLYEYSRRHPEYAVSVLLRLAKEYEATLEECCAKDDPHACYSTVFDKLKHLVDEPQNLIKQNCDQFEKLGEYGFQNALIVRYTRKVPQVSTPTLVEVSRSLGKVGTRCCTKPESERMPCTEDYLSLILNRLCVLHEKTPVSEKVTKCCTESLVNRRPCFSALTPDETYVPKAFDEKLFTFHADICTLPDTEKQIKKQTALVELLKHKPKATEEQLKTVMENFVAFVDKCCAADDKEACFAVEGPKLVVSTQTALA
T1 sequence (P01375 77-233 limits assumed): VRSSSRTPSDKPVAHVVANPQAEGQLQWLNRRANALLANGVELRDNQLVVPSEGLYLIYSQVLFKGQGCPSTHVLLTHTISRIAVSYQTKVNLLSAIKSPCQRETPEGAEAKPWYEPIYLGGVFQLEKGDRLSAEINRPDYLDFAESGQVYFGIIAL
T4 sequence (P02768 25-609 limits assumed): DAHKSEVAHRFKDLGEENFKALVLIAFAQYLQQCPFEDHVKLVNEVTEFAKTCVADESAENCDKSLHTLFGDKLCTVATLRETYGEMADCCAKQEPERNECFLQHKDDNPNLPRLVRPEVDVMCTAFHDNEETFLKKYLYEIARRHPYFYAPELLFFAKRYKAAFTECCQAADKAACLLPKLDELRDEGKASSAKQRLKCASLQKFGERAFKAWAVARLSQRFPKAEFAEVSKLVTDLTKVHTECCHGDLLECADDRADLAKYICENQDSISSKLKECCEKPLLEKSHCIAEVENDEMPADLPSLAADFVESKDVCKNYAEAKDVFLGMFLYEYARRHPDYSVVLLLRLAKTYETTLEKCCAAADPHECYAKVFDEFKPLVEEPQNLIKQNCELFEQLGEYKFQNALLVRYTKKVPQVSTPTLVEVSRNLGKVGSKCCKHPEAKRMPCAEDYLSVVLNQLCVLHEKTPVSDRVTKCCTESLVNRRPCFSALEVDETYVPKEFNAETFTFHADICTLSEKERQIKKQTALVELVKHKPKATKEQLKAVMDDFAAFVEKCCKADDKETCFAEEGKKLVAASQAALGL

Binder | binding result (human TNF-alpha [1]) | binding result (rat TNF-alpha [2]) | binding result (BSA) | Kd (human TNF-alpha [3]) | binding result (rat TNF-alpha [4]) | other results
VL18-VL18 3L (other, Hexahistidine tail and HA tag; also called VL18-3L-VL18; VL18-18 #3L) single chain VL-VL dimer: ELVLTQTPASVEAAVGGTVTIKCQASQSISSYLAWYQQKPGHPPKLLIYKASTLASGVSSRFKGSGSGTEFTLTISDLECADAATYYCQSTYLGGTYVGGAFGGGTELEILSGGGGSGGGGSGGGGSSGELVLTQTPASVEAAVGGTVTIKCQASQSISSYLAWYQQKPGHPPKLLIYKASTLASGVSSRFKGSGSGTEFTLTISDLECADAATYYCQSTYLGGTYVGGAFGGGTELEIL | binds | binds | no binding | – | – | –
VL18-3L-VL11 DI #3 (other, also called Variant 3) ELVLTQQPASVEAAPGGTVTIKCQASQSISSYLAWYQQKPGHPPKLLIYKVSTRASGVSSRFSGSGSGTEFTLTISDLKSADAATYYCQSTYLGGTYVGGAFGGGTELEIKSGGGGSGGGGSGGGGSSGELVMTQQPASVEAAPGGTVTIKCQASQSISSYLAWYQQKPGQPPKLLIYRVSTRASGVSSRFSGSGSGTEFTLTISDLKSADAATYYCQSTYVNRGSVAAFGGGTKVVVKYPYDVPDYA | – | – | – | 0.7 nM | binds | –
VL18-3L-VL11 DI #5 (other, also called Variant 5) ELVLTQQPASVEAAPGGTVTIKCQASQSISSYLAWYQQKPGHPPKLLIYKASTLASGVSSRFSGSGSGTEFTLTISDLKSADAATYYCQSTYLGGTYVGGAFGGGTELEIKSGGGGSGGGGSGGGGSSGELVMTQQPASVEAAPGGTVTIKCQASQSISSYLAWYQQKPGQPPKLLIYRASTLASGVSSRFSGSGSGTEFTLTISDLKSADAATYYCQSTYVNRGSVAAFGGGTKVVVKYPYDVPDYA | – | – | – | 0.8 nM | binds | –
VL18-3L-VL11 DI #1 (other, Cloned in pET28a; also called Variant 1) ELVLTQQPASVEAAPGGTVTIKCQASQSISSYLAWYQQKPGHPPKLLIYKVSTRASGVSSRFSGSGSGTEFTLTISDLKSADAATYYCQSAYLGGTYVGGAFGGGTELEIKSGGGGSGGGGSGGGGSSGELVMTQQPASVEAAPGGTVTIKCQASQSISSYLAWYQQKPGQPPKLLIYRVSTRASGVSSRFSGSGSGTEFTLTISDLKSADAATYYCQSAYVNRGSVASFGGGTKVVVKYPYDVPDYA | – | – | – | – | binds | –
B1 | – | – | – | – | – | binding result (VL18-3L-VL11 PEP DI #7 [5]): binds
VL18-3L-VL11 DI3-PEP DI #8 (other, De-immunized dimer DI #3 fused to de-immunized PEP; also called Variant 8) ELVLTQQPASVEAAPGGTVTIKCQASQSISSYLAWYQQKPGHPPKLLIYKVSTRASGVSSRFSGSGSGTEFTLTISDLKSADAATYYCQSTYLGGTYVGGAFGGGTELEIKSGGGGSGGGGSGGGGSSGELVMTQQPASVEAAPGGTVTIKCQASQSISSYLAWYQQKPGQPPKLLIYRVSTRASGVSSRFSGSGSGTEFTLTISDLKSADAATYYCQSTYVNRGSVAAFGGGTKVVVKSGGGGSGGGGSGGGGSSGDITGAALLEAKDAAINELKQYGISDYYVHLINKADTVEGVNALKDEILSALPYPYDVPDYA | – | – | – | 0.6 nM | – | Kd (human albumin): 88.5 nM; Kd (rat albumin): 22.4 nM
VL18-3L-VL11 DI5-PEP DI #9 (other, De-immunized dimer DI #5 fused to de-immunized PEP; also called Variant 9) ELVLTQQPASVEAAPGGTVTIKCQASQSISSYLAWYQQKPGHPPKLLIYKASTLASGVSSRFSGSGSGTEFTLTISDLKSADAATYYCQSTYLGGTYVGGAFGGGTELEIKSGGGGSGGGGSGGGGSSGELVMTQQPASVEAAPGGTVTIKCQASQSISSYLAWYQQKPGQPPKLLIYRASTLASGVSSRFSGSGSGTEFTLTISDLKSADAATYYCQSTYVNRGSVAAFGGGTKVVVKSGGGGSGGGGSGGGGSSGDITGAALLEAKDAAINELKQYGISDYYVHLINKADTVEGVNALKDEILSALPYPYDVPDYA | – | – | – | 0.4 nM | binds | Kd (human albumin): 92 nM; Kd (rat albumin): 32 nM; binding result (mouse albumin): binds
B2 | – | – | – | – | – | Kd (VL18-3L-VL11 PEP DI #7 [6]): 28.1 nM
VL11-VL11 3L (other, Hexahistidine tail and HA tag; also called VL11-3L-VL11; VL11-11 #3L) single chain VL-VL dimer: ELVMTQTPASVEAAVGGTVTIKCQASQSISRYLAWYQQKPGQPPKLLIYRASTLASGVSSRFKGSGSGTEFTLTISDLECADAATYYCQSTYVNRGSVAAFGGGTEVVVKSGGGGSGGGGSGGGGSSGELVMTQTPASVEAAVGGTVTIKCQASQSISRYLAWYQQKPGQPPKLLIYRASTLASGVSSRFKGSGSGTEFTLTISDLECADAATYYCQSTYVNRGSVAAFGGGTEVVVK | binds | binds | no binding | – | – | –
VL11-VL18 3L (other, Hexahistidine tail and HA tag; also called VL11-3L-VL18; VL11-18 #3L) single chain VL-VL dimer: ELVMTQTPASVEAAVGGTVTIKCQASQSISRYLAWYQQKPGQPPKLLIYRASTLASGVSSRFKGSGSGTEFTLTISDLECADAATYYCQSTYVNRGSVAAFGGGTEVVVKSGGGGSGGGGSGGGGSSGELVLTQTPASVEAAVGGTVTIKCQASQSISSYLAWYQQKPGHPPKLLIYKASTLASGVSSRFKGSGSGTEFTLTISDLECADAATYYCQSTYLGGTYVGGAFGGGTELEIL | binds | binds | no binding | – | – | –
